Experimental data taken from patent US7148193B2, “Compounds that bind to growth hormone receptor” (Antyra, Inc., priority 1997, dated 2006).
Changes are numbered by the printed parent chain.

Legend:
[1] = biological target: T1, rat growth hormone receptor (Rattus norvegicus, UniProt P16310); assay: Cell proliferation assay (WST-1) in FDC-1 cells stably transfected with rat growth hormone receptor; assay type: cell-based; conditions: cells with 0.003 μM bovine GH, 18 h, at the concentrations tested
T1 construct: expressed in transfected cells; host or cells: FDC-1 cells
T1 sequence (P16310 19-638): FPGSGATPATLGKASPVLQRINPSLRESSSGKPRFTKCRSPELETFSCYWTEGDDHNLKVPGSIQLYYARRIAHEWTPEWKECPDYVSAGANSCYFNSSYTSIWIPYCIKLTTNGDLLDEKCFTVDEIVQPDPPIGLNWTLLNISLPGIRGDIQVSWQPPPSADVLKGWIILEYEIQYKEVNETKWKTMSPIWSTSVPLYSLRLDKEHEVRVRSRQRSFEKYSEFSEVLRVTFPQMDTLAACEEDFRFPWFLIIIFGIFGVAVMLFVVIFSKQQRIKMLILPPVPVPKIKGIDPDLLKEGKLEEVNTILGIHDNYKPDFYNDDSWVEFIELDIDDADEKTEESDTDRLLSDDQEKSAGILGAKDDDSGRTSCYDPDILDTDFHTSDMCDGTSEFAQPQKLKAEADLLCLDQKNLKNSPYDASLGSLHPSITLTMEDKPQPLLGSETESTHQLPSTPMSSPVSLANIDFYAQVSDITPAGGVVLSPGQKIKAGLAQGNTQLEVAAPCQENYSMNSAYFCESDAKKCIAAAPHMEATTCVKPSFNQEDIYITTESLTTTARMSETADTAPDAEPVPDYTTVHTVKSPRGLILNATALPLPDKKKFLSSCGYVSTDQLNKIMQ
Protocol: Cells transfected with rat GHR (50,000 cells per well) were incubated with either bovine GH, H5 peptide (SEQ ID NO:8), 447 peptide (SEQ ID NO:11) or control peptide (SEQ ID NO:10) for 18 h at 37° C. Experiments were done in triplicate. Background signal A450=0.15. […] Cells transfected with rat GHR (50,000 cells per well) containing […] bovine GH were incubated with either control peptide (SEQ ID NO:10), H5 peptide (SEQ ID NO:8) or 447 peptide (SEQ ID NO:11) for 18 h at 37° C. Proliferation was measured using WST-1 reagent. The “*” symbol corresponds to the A450 measurement for the cells incubated without GH.
Agonistic and antagonistic activities of the two peptides, H5WT (SEQ ID NO:8) and bP#447 ([…]), were tested in FDC-1 cells stably transfected with the gene encoding the rat growth hormone receptor. The resulting cell line required either IL-3 or GH for growth. The cells were grown in RPMI 1640 medium containing 10% FCS (fetal calf serum) and 20 units of IL-3 per ml. […] activity assays were performed in a total volume of 100 μl in 96 well plates (flat bottom). Cells were seeded at 50,000 cells/well in 50 μl RPMI 1640 (without IL-3) medium containing horse serum instead of FCS to reduce background. To duplicate wells, 50 μl of either growth hormone or peptides at different concentrations was added, followed by incubation for 18 h in a CO2 incubator. Assays to measure the antagonistic activity were performed in a total volume of 100 μl in 96 well plates. Either H5WT peptide (SEQ ID NO:8), bP#447 peptide (SEQ ID NO:11), or control peptide (SEQ ID NO:10) was added to cells containing 0.003 μM of bovine GH and incubated at 37° C. for 18 h in a CO2 incubator. Proliferation assays were performed using WST-1 reagent. The WST-1 tetrazolium salt (light red color) is cleaved to formazan (dark red color) by the succinate-tetrazolium reductase system, which is active only in viable cells. […] Ten microliters of WST-1 reagent was added and the plates incubated for 1–4 h 37° C. Proliferation was measured by absorbance at 450 nm.

rGHBP [2] = biological target: T2, rGHBP (Rattus norvegicus, UniProt P16310); assay: Species specificity of binding by ELISA and BIAcore, rGHBP; conditions: in words
T2 construct: 1–48 of GHBP; The 3′ oligo used for this reaction encoded the mutation L43R (CTG→AGA); The second PCR reaction amplified the DNA encoding amino acids 38–260; 6xHis; made in house
T2 sequence (P16310 19-278 isoform P16310-2): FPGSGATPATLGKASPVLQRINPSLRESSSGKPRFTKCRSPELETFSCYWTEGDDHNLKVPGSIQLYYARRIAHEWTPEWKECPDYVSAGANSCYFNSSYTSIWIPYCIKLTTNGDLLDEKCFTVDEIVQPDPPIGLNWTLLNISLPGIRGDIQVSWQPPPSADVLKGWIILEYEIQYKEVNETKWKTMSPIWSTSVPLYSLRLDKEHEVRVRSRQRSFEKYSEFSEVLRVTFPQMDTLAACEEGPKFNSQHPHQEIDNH
Protocol: (§1) Wells were coated with either recombinant rGHBP or ‘hu’ GHBP (100 ng/well). Additions of H5 (SEQ ID NO:8) and H10 (SEQ ID NOS:9, 80, and 81) phage (10^10/well) and detection were made as described. […] Streptavidin chips were coated with H5 (SEQ ID NO:8) to 1100 RU as described and rGHBP or ‘hu’ GHBP (500 μg/ml) injected as 30 μl samples.
(§2) Growth hormone receptors from different species bind human GH as well as their own GH, however human GHR only binds human or monkey GH. […] The sequence of rGHBP was altered by PCR to create a “humanized” version (‘hu’ GHBP; FIG. 9A). Partially purified ‘hu’GHBP (FIG. 9B) was tested for binding using ELISA and BIAcore analysis. […] This was confirmed by BIAcore analysis (FIG. 10B).
(§3) The biotinylated control peptide (SEQ ID NO:10) was immobilized onto one flow cell of a SA-5 (streptavidin coated) sensor chip to a final density of 700 RU. On a second flow cell, either hGH (1100 RU final density), H5WT peptide (SEQ ID NO:8; 1100 RU final density), or bGH (730 RU final density) was immobilized. GHBP (either rat or humanized) was injected at a concentration of 500 μg/ml with a flow rate of 5 μl/min. Background binding to the control surface was subtracted prior to further analysis.

‘hu’ GHBP = biological target: T3, ‘hu’ GHBP (Rattus norvegicus, UniProt P16310, L61R); assay: Species specificity of binding by ELISA and BIAcore, 'hu' GHBP; conditions: in words
T3 construct: 1–48 of GHBP; The 3′ oligo used for this reaction encoded the mutation L43R (CTG→AGA); The second PCR reaction amplified the DNA encoding amino acids 38–260; 6xHis; made in house
T3 sequence (P16310 19-278 isoform P16310-2 L61R): T2 sequence (P16310 19-278 isoform P16310-2) with L43R
Protocol: as §1, §2, §3

[3] = biological target: T4, ‘hu’ GHBP (humanized rat GHBP) (Rattus norvegicus, UniProt P16310, L61R); assay: Phage ELISA binding and competition on 'hu' GHBP coated wells; conditions: ELISA signal; for ELISA Competition, ‘hu’GHBP, +BSA: BSA 1 μM; for ELISA Competition, ‘hu’GHBP, +hGH: huGH 1 μM as competitor; for ELISA Competition, ‘hu’GHBP, none: no competitor
T4 construct: 1–48 of GHBP; The 3′ oligo used for this reaction encoded the mutation L43R (CTG→AGA); The second PCR reaction amplified the DNA encoding amino acids 38–260; 6xHis; made in house
T4 sequence (P16310 19-278 isoform P16310-2 L61R): T2 sequence (P16310 19-278 isoform P16310-2) with L43R
Protocol: For analysis of individual clones, colonies were picked and phage prepared as described above. Microtiter wells were coated and blocked as described above. Wells were coated with either rGHBP or a control IgG MAb. Phage resuspended in MPBS were added to duplicate wells (100 μl/well) and incubated at room temperature for 1 hr. The phage solution was then removed, and the wells were washed three times with PBS at room temperature. Anti-M13 antibody conjugated to horseradish peroxidase (Pharmacia Biotech) was diluted 1:3000 in MPBS and added to each well (100 μl/well). Incubation was for another hour at room temperature, followed by PBS washes as described. Color was developed by addition of ABTS solution (100 μl/well; Boehringer). Color development was stopped by adjusting each well to 0.5% SDS. Plates were analyzed at 405 nm using a SpectraMax 340 plate reader (Molecular Devices) and SoftMax Pro software. Data points were averaged after subtraction of appropriate blanks. A clone was considered “positive” if the A405 of the well was >2-fold over background.
Humanized GHBP (‘hu’ GHBP) contained the single amino acid change of rat GHBP amino acids L43 to R43, and was capable of binding human GH, as shown in FIG. 9. Direct immobilization of ‘hu’ GHBP was done as described earlier for panning of the secondary H5 library against rat GHBP and used inputs of ‘hu’ GHBP, prepared as described earlier of 100 μl per well of […] protein. Panning was performed with or without H10 peptide (SEQ ID NO:9; 30 μM) for 4 rounds, and 96 clones were picked.
(§4) Clones were tested for the presence of E-tag and binding to ‘hu’ GHBP, rGHBP, or BSA-coated wells. Those having specific GHBP binding (i.e., at least 2 fold greater binding to the GHBP than BSA) and with an E-tag positive signal were subjected to DNA sequencing. Three different clones were isolated and tested a second time against GHBP plus and minus GH (1 μM) or BSA (1 μM) coated wells as described. In these tests, huGH was used as competitor with ‘hu’ GHBP coated wells and bovineGH was used as a competitor with rat GHBP coated wells. […] The following open reading frame insertion including the DYKD (SEQ ID NO:79) amino terminal tag and up to the C-terminal E-tag was obtained for these clones; and is shown in Table III: […]

rGHBP [4] = biological target: T2, rGHBP; assay: Phage ELISA binding and competition on rGHBP coated wells; conditions: for ELISA Competition, rGHBP, +BSA / ELISA Competition, rGHBP, +bGH / ELISA Competition, rGHBP, none: ELISA signal; for ELISA Competition, rGHBP, +BSA: BSA 1 μM; for ELISA Competition, rGHBP, none: no competitor; for clone binding blocked by GH: GH 1 μM, bovine GH on rat GHBP wells, huGH on ‘hu’ GHBP wells
Protocol: For analysis of individual clones, colonies were picked and phage prepared as described above. Microtiter wells were coated and blocked as described above. Wells were coated with either rGHBP or a control IgG MAb. Phage resuspended in MPBS were added to duplicate wells (100 μl/well) and incubated at room temperature for 1 hr. The phage solution was then removed, and the wells were washed three times with PBS at room temperature. Anti-M13 antibody conjugated to horseradish peroxidase (Pharmacia Biotech) was diluted 1:3000 in MPBS and added to each well (100 μl/well). Incubation was for another hour at room temperature, followed by PBS washes as described. Color was developed by addition of ABTS solution (100 μl/well; Boehringer). Color development was stopped by adjusting each well to 0.5% SDS. Plates were analyzed at 405 nm using a SpectraMax 340 plate reader (Molecular Devices) and SoftMax Pro software. Data points were averaged after subtraction of appropriate blanks. A clone was considered “positive” if the A405 of the well was >2-fold over background. […]
These clones were next analyzed for binding to the receptor's active sites (FIG. 2B). Competitions of phage binding were done both with the cognate ligand (i.e., GH) and with a specific target-neutralizing MAb 2C3 (Wang, B. S., et al. Mol. Cellular Endocrinology, vol. 116, p. 223–226, 1996).
as §4

Substance	antagonistic activity [1]	binding to rGHBP (rGHBP [2])	binding to ‘hu’ GHBP (‘hu’ GHBP)	ELISA Competition, ‘hu’GHBP, +BSA [3]	ELISA Competition, ‘hu’GHBP, +hGH [3]	ELISA Competition, ‘hu’GHBP, none [3]	ELISA Competition, rGHBP, +BSA (rGHBP [4])	ELISA Competition, rGHBP, +bGH (rGHBP [4]; bovine GH 1 μM as competitor)	ELISA Competition, rGHBP, none (rGHBP [4])	clone binding blocked by GH (rGHBP [4])	binding to rGHBP (rGHBP [2]; listed as clone 13)	binding to ‘hu’ GHBP (‘hu’ GHBP; listed as clone 13)	ELISA Competition, rGHBP, +BSA (rGHBP [4]; phage concentrated 15×)	ELISA Competition, rGHBP, +bGH (rGHBP [4]; bovine GH 1 μM, phage concentrated 15×)	ELISA Competition, rGHBP, none (rGHBP [4]; phage concentrated 15×)	phage binding to rGHBP blocked by GH and MAb 2C3 (rGHBP [4]; competition ELISA of phage binding)
Control peptide: SEQ ID NO:10, contains same amino acids as H5 in randomized order (DYKDWCLTLQPLVWASGGGYCA; control peptide) [reference compound]	no antagonistic activity															
DYKDALLHRSRCVRWGKWVCCLPPVGVGGAQANQGMSVQRFRHC (phage displayed; clone hh peptide)		bind to both forms of GHBP	bind to both forms of GHBP	0.37	0.35	0.37	0.53	0.52	0.55	only clone 13 was blocked by GH						
DYKDAQWWTTlGSNMFVLPGLRGCTFLPPMQCDREIRVFLVVVH (DYKDAQWWTTIGSNMFVLPGLRGCTFLPPMQCDREIRVFLVVVH; phage displayed; clone 13 peptide) [compound 13]		bind to both forms of GHBP	bind to both forms of GHBP							blocked by GH	bound to both human and rat forms of GHBP	bound to both human and rat forms of GHBP	1.98	0.29	2.01	
H10: frame shifted phage clone without ORF, SEQ ID NOS:9, 80 and 81, binds rGHBP outside the active site (WLGCYFVAGVVACV; H10 peptide)		bound to rGHBP	bound to rGHBP and ‘hu’ GHBP	0.29	0.28	0.30	0.52	0.48	0.52							not blocked by either GH or MAb 2C3
